Measured values from PMC2171490 (The Journal of Cell Biology, 2005).
Values belong to the binder of their own block, whether it stands above or below them.

Biological target: EYFP-HP1β (UniProt P83916 1-185)
Assay: FRET or BRET

EYFP-HP1β, sequence (P83916 whole entry): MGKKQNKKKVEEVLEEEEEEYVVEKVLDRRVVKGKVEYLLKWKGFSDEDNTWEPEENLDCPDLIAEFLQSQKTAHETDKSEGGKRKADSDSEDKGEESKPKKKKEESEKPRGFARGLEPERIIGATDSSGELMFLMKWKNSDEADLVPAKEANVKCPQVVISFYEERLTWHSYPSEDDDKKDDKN

mean donor fluorescence lifetime τ Mod: 2.8 ns
mean donor fluorescence lifetime τφ: 2.2 ns
B1: ECFP–SUV39H1-Nchromo (domain or fragment, human, UniProt O43463-1 3-118, looked up)
chain: ENLKGCSVCCKSSWNQLQDLCRLAKLSCPALGISKRNLYDFEVEYLCDYKKIREQEYYLVKWRGYPDSESTWEPRQNLKCVRILKQFHKDLERELLRRHHRSKTPRHLDPSLANYL

mean donor fluorescence lifetime τ Mod: 2.7 ns
mean donor fluorescence lifetime τφ: 2.1 ns
B2: ECFP–SUV39H1-ΔSET (domain or fragment, human, UniProt O43463-1 3-249, looked up)
chain: ENLKGCSVCCKSSWNQLQDLCRLAKLSCPALGISKRNLYDFEVEYLCDYKKIREQEYYLVKWRGYPDSESTWEPRQNLKCVRILKQFHKDLERELLRRHHRSKTPRHLDPSLANYLVQKAKQRRALRRWEQELNAKRSHLGRITVENEVDLDGPPRAFVYINEYRVGEGITLNQVAVGCECQDCLWAPTGGCCPGASLHKFAYNDQGQVRLRAGLPIYECNSRCRCGYDCPNRVVQKGIRYDLCIFR

mean donor fluorescence lifetime τ Mod: 2.9 ns
mean donor fluorescence lifetime τφ: 2.2 ns
B3: ECFP-SUV39H1 (enzyme, human, UniProt O43463-1 1-412, looked up)
chain: MAENLKGCSVCCKSSWNQLQDLCRLAKLSCPALGISKRNLYDFEVEYLCDYKKIREQEYYLVKWRGYPDSESTWEPRQNLKCVRILKQFHKDLERELLRRHHRSKTPRHLDPSLANYLVQKAKQRRALRRWEQELNAKRSHLGRITVENEVDLDGPPRAFVYINEYRVGEGITLNQVAVGCECQDCLWAPTGGCCPGASLHKFAYNDQGQVRLRAGLPIYECNSRCRCGYDCPNRVVQKGIRYDLCIFRTDDGRGWGVRTLEKIRKNSFVMEYVGEIITSEEAERRGQIYDRQGATYLFDLDYVEDVYTVDAAYYGNISHFVNHSCDPNLQVYNVFIDNLDERLPRIAFFATRTIRAGEELTFDYNMQVDPVDMESTRMDSNFGLAGLPGSPKKRVRIECKCGTESCRKYLF
